Here are results for 1 molecule from publication PMC6019379, “RecA-like domain 2 of DNA-dependent ATPase A domain, a SWI2/SNF2 protein, mediates conformational integrity and ATP hydrolysis” (Bioscience Reports, 2018).

For the data set, the target named is T1, ADAAD T560A (Bos taurus (bovine), UniProt Q9TTA5 221-940, T780A).
T1 sequence: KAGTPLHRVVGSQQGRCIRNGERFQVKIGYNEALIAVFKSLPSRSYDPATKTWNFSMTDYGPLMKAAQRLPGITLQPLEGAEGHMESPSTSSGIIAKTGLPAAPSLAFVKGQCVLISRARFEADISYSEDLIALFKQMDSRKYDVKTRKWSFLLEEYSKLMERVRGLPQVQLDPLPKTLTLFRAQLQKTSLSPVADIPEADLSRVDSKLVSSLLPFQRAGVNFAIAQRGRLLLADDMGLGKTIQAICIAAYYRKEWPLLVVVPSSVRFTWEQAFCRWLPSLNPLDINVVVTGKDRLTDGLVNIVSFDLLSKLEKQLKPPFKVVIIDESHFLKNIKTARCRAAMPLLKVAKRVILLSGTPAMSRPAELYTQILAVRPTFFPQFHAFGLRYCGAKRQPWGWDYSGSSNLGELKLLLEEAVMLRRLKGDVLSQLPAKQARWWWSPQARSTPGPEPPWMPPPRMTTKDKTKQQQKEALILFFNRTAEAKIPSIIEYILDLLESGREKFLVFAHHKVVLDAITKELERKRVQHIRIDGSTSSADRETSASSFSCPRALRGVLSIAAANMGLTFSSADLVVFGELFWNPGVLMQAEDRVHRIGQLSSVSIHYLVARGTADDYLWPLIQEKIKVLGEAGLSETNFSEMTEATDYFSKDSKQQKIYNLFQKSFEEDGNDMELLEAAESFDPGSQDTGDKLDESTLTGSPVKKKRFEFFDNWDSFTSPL
The data set can be described thus: intrinsic tryptophan fluorescence titration; saturating ATP; Fluorescence titration (ex 295 nm, em 340 nm), one-site saturation fit; buffer, salt, pH and temperature not given in the material. Wild-type ADAAD Kd values are cited from ref 24 and not listed. To be noted: protein: recombinant; tags: His (Ni-NTA, pET-14b); hairpin.

Turning to GCGCAATTGCGCTCGACGATTTTTTAGCGCAATTGCGC (structured_DNA) [slDNA (stem-loop DNA)], the dissociation constant Kd was 1.4 ± 0.3 nM.

For orientation: Kd means the constant that tells how readily two partners part at equilibrium.
